From the supplement of paper PMC9876800

These substances were tested on peptide library, one residue held at a place counted from the S/T acceptor (assay: relative phosphorylation of the sub-library (ratio to the mean residue at this position); human; higher = residue favoured). Conditions: D fixed; at +2.
Method in brief: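 Human or orthologue kinase constructs, purified and recombinant, were incubated under kinase-specific conditions in 384-well plates with biotinylated degenerate peptide sub-libraries. Each sub-library fixed one residue at one position around a central Ser/Thr. Incubations lasted 90 min with peptides at 50 μM and 50 μM ATP spiked with γ-32P-ATP, after which spots on streptavidin membranes were phosphorimaged and quantified by densitometry. Relative sub-library phosphorylation is a ratio to the mean residue at that position.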

GRK2, construct: Full length, sequence (P25098 whole entry, looked up): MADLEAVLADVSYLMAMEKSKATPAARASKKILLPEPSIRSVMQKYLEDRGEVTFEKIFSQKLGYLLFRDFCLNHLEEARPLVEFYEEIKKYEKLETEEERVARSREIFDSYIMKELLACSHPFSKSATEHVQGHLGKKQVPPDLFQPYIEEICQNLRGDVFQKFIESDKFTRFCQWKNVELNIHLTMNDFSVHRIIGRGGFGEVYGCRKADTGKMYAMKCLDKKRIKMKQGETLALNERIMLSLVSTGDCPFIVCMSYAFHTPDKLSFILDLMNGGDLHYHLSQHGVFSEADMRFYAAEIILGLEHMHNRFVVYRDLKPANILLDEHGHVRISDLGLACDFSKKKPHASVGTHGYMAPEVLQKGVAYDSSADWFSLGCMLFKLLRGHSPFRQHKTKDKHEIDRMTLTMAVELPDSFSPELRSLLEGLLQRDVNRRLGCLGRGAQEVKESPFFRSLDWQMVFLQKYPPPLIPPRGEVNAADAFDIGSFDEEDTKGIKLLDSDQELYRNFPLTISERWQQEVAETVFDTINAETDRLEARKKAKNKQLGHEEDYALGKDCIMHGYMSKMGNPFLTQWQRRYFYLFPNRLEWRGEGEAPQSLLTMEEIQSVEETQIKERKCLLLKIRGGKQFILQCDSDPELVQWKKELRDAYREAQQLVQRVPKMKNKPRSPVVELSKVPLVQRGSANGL
TP53RK, construct: Full length, sequence (Q96S44 whole entry, looked up): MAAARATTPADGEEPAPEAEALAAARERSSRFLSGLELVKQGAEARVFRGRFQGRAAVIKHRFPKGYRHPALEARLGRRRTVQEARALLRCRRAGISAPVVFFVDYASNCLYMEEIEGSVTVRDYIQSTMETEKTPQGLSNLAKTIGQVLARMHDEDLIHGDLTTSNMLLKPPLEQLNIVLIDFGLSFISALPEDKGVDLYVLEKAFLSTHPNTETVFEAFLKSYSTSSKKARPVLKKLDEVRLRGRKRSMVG
SGK3, construct: aa119-end, sequence (Q96BR1 119-496, looked up): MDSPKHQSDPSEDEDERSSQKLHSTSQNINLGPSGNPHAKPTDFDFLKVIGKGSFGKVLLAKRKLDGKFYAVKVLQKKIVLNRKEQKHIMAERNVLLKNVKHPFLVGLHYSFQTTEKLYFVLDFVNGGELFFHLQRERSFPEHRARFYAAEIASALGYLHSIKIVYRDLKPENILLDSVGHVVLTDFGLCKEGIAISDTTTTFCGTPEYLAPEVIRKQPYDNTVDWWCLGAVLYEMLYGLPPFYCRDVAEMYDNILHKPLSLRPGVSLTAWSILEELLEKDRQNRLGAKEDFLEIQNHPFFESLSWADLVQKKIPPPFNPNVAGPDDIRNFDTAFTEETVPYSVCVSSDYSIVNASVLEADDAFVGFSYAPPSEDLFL
NEK11, construct: Full length, sequence (Q8NG66 whole entry, looked up): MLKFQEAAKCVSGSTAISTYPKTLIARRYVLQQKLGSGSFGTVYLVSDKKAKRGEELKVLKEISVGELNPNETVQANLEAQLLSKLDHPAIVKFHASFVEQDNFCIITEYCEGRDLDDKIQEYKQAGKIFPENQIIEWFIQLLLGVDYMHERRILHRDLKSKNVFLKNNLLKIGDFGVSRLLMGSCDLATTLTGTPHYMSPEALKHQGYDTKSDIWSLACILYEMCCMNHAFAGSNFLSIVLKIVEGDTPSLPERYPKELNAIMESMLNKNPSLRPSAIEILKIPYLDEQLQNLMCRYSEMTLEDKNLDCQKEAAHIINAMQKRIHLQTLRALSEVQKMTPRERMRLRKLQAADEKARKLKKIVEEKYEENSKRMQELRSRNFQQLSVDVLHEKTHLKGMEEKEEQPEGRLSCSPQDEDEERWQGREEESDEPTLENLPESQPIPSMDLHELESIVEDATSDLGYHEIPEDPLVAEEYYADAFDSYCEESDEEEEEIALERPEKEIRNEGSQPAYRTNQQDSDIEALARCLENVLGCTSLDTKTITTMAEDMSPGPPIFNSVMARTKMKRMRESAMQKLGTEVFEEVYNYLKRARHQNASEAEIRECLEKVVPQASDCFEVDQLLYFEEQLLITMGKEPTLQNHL
NEK4, construct: Full length, sequence (P51957 whole entry, looked up): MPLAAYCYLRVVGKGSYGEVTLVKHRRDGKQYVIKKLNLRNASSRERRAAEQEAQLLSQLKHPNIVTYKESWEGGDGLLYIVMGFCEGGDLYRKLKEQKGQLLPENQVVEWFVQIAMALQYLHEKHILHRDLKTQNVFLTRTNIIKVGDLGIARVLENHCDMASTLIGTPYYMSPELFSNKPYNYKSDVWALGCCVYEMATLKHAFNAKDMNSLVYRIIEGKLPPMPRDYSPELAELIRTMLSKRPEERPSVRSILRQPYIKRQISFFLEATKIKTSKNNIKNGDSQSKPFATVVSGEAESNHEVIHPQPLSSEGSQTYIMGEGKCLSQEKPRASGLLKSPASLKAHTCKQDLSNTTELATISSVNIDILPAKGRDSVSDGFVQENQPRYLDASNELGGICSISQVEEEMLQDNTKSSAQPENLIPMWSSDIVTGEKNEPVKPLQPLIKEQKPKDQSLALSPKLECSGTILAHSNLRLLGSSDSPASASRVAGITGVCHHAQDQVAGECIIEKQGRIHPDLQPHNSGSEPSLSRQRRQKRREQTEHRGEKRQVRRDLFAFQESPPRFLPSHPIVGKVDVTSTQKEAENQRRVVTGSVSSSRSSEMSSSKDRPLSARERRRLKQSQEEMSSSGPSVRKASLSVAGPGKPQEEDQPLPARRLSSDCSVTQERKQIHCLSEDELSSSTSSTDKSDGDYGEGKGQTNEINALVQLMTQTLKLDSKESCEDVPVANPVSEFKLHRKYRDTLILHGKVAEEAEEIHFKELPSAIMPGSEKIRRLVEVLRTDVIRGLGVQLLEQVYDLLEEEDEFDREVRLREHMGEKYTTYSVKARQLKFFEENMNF
AURKB, construct: Full length, sequence (Q96GD4 whole entry, looked up): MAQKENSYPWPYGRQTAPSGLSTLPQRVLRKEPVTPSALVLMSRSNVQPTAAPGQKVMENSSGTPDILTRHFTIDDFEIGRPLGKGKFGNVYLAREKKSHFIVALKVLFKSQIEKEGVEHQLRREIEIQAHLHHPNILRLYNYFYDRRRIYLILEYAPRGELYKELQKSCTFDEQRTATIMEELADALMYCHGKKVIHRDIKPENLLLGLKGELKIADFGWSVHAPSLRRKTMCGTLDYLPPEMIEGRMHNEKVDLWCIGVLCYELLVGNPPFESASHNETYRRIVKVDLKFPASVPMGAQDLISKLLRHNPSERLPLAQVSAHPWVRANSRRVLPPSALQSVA
GRK7, construct: Full length, sequence (Q8WTQ7 whole entry, looked up): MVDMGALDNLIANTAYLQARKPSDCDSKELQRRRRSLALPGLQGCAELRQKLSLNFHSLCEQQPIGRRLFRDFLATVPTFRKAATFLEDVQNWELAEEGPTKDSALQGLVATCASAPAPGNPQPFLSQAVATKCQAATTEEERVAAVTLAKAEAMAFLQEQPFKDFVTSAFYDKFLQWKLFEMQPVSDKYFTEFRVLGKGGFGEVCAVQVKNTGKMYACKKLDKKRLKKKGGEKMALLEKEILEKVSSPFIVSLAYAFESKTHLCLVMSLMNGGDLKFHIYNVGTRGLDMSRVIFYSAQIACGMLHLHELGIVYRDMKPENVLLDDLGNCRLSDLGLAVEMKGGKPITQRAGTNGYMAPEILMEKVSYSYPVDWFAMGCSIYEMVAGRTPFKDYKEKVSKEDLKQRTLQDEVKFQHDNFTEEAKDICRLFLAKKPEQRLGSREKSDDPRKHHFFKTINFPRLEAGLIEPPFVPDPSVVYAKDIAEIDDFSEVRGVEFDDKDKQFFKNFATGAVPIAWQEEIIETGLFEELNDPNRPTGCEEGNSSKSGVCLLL

Q: How did the relative phosphorylation turn out when “AURKB, construct: Full length (from UniProt Q96GD4)” was run?
A: 0.507

Q: “SGK3, construct: aa119-end (from UniProt Q96BR1)” was tested. Which relative phosphorylation did it give?
A: 0.423

Q: How did the relative phosphorylation turn out when “GRK7, construct: Full length (from UniProt Q8WTQ7)” was run?
A: 0.93

Same assay, conditions: D fixed; at +3

Q: How did the relative phosphorylation turn out when “NEK11, construct: Full length (from UniProt Q8NG66)” was run?
A: 0.499

Q: With “MKNK1, construct: Full length (D165-205) (from UniProt Q9BUB5)” as the substance, how does the relative phosphorylation read?
A: 0.434

Q: How did the relative phosphorylation turn out when “TP53RK, construct: Full length (from UniProt Q96S44)” was run?
A: 0.952

Q: How did the relative phosphorylation turn out when “GRK2, construct: Full length (from UniProt P25098)” was run?
A: 1.42

Q: Which relative phosphorylation does the source give for “NEK4, construct: Full length (from UniProt P51957)” here?
A: 0.375

Q: How did the relative phosphorylation turn out when “AURKB, construct: Full length (from UniProt Q96GD4)” was run?
A: 0.523

Q: “SGK3, construct: aa119-end (from UniProt Q96BR1)” was tested. Which relative phosphorylation did it give?
A: 0.901

Q: How did the relative phosphorylation turn out when “GRK7, construct: Full length (from UniProt Q8WTQ7)” was run?
A: 1.85

Same assay, conditions: D fixed; at +4

Q: For “NEK11, construct: Full length (from UniProt Q8NG66)”, which relative phosphorylation is on record?
A: 0.597

Q: How did the relative phosphorylation turn out when “MKNK1, construct: Full length (D165-205) (from UniProt Q9BUB5)” was run?
A: 0.925

Q: For “TP53RK, construct: Full length (from UniProt Q96S44)”, which relative phosphorylation is on record?
A: 1.05

Q: For “GRK2, construct: Full length (from UniProt P25098)”, which relative phosphorylation is on record?
A: 1.35

Q: Which relative phosphorylation does the source give for “NEK4, construct: Full length (from UniProt P51957)” here?
A: 0.693

Q: For “AURKB, construct: Full length (from UniProt Q96GD4)”, which relative phosphorylation is on record?
A: 0.986

Q: “SGK3, construct: aa119-end (from UniProt Q96BR1)” was tested. Which relative phosphorylation did it give?
A: 0.91

Q: With “GRK7, construct: Full length (from UniProt Q8WTQ7)” as the substance, how does the relative phosphorylation read?
A: 1.55

Same assay, conditions: D fixed; at -1

Q: With “NEK11, construct: Full length (from UniProt Q8NG66)” as the substance, how does the relative phosphorylation read?
A: 0.64

Q: How did the relative phosphorylation turn out when “MKNK1, construct: Full length (D165-205) (from UniProt Q9BUB5)” was run?
A: 0.355

Q: How did the relative phosphorylation turn out when “TP53RK, construct: Full length (from UniProt Q96S44)” was run?
A: 0.972

Q: How did the relative phosphorylation turn out when “GRK2, construct: Full length (from UniProt P25098)” was run?
A: 1.14

Q: Which relative phosphorylation does the source give for “NEK4, construct: Full length (from UniProt P51957)” here?
A: 0.63

Q: How did the relative phosphorylation turn out when “AURKB, construct: Full length (from UniProt Q96GD4)” was run?
A: 0.489

Q: For “SGK3, construct: aa119-end (from UniProt Q96BR1)”, which relative phosphorylation is on record?
A: 0.498

Q: “GRK7, construct: Full length (from UniProt Q8WTQ7)” was tested. Which relative phosphorylation did it give?
A: 1.57

Same assay, conditions: D fixed; at -2

Q: How did the relative phosphorylation turn out when “NEK11, construct: Full length (from UniProt Q8NG66)” was run?
A: 0.742

Q: Which relative phosphorylation does the source give for “MKNK1, construct: Full length (D165-205) (from UniProt Q9BUB5)” here?
A: 0.324

Q: With “TP53RK, construct: Full length (from UniProt Q96S44)” as the substance, how does the relative phosphorylation read?
A: 0.929

Q: With “GRK2, construct: Full length (from UniProt P25098)” as the substance, how does the relative phosphorylation read?
A: 1.38

Q: How did the relative phosphorylation turn out when “NEK4, construct: Full length (from UniProt P51957)” was run?
A: 0.601

Q: How did the relative phosphorylation turn out when “AURKB, construct: Full length (from UniProt Q96GD4)” was run?
A: 0.176

Q: “SGK3, construct: aa119-end (from UniProt Q96BR1)” was tested. Which relative phosphorylation did it give?
A: 0.2

Q: With “GRK7, construct: Full length (from UniProt Q8WTQ7)” as the substance, how does the relative phosphorylation read?
A: 3.03

Same assay, conditions: D fixed; at -3

Q: For “NEK11, construct: Full length (from UniProt Q8NG66)”, which relative phosphorylation is on record?
A: 0.568

Q: Which relative phosphorylation does the source give for “MKNK1, construct: Full length (D165-205) (from UniProt Q9BUB5)” here?
A: 0.281

Q: For “TP53RK, construct: Full length (from UniProt Q96S44)”, which relative phosphorylation is on record?
A: 1.02

Q: Which relative phosphorylation does the source give for “GRK2, construct: Full length (from UniProt P25098)” here?
A: 1.9

Q: With “NEK4, construct: Full length (from UniProt P51957)” as the substance, how does the relative phosphorylation read?
A: 0.422

Q: Which relative phosphorylation does the source give for “AURKB, construct: Full length (from UniProt Q96GD4)” here?
A: 0.485

Q: How did the relative phosphorylation turn out when “SGK3, construct: aa119-end (from UniProt Q96BR1)” was run?
A: 0.186

Q: How did the relative phosphorylation turn out when “GRK7, construct: Full length (from UniProt Q8WTQ7)” was run?
A: 2.12

Same assay, conditions: D fixed; at -4

Q: For “NEK11, construct: Full length (from UniProt Q8NG66)”, which relative phosphorylation is on record?
A: 0.73

Q: With “MKNK1, construct: Full length (D165-205) (from UniProt Q9BUB5)” as the substance, how does the relative phosphorylation read?
A: 0.361

Q: Which relative phosphorylation does the source give for “TP53RK, construct: Full length (from UniProt Q96S44)” here?
A: 0.897

Q: How did the relative phosphorylation turn out when “GRK2, construct: Full length (from UniProt P25098)” was run?
A: 1.41

Q: How did the relative phosphorylation turn out when “NEK4, construct: Full length (from UniProt P51957)” was run?
A: 0.811

Q: How did the relative phosphorylation turn out when “AURKB, construct: Full length (from UniProt Q96GD4)” was run?
A: 0.629

Q: Which relative phosphorylation does the source give for “SGK3, construct: aa119-end (from UniProt Q96BR1)” here?
A: 0.53

Q: Which relative phosphorylation does the source give for “GRK7, construct: Full length (from UniProt Q8WTQ7)” here?
A: 2.48

Same assay, conditions: D fixed; at -5

Q: For “NEK11, construct: Full length (from UniProt Q8NG66)”, which relative phosphorylation is on record?
A: 0.677

Q: With “MKNK1, construct: Full length (D165-205) (from UniProt Q9BUB5)” as the substance, how does the relative phosphorylation read?
A: 0.43

Q: How did the relative phosphorylation turn out when “TP53RK, construct: Full length (from UniProt Q96S44)” was run?
A: 0.956

Q: How did the relative phosphorylation turn out when “GRK2, construct: Full length (from UniProt P25098)” was run?
A: 1.34

Q: Which relative phosphorylation does the source give for “NEK4, construct: Full length (from UniProt P51957)” here?
A: 0.797

Q: “AURKB, construct: Full length (from UniProt Q96GD4)” was tested. Which relative phosphorylation did it give?
A: 0.734

Q: With “SGK3, construct: aa119-end (from UniProt Q96BR1)” as the substance, how does the relative phosphorylation read?
A: 0.497

Q: How did the relative phosphorylation turn out when “GRK7, construct: Full length (from UniProt Q8WTQ7)” was run?
A: 2.26

Same assay, conditions: E fixed; at +1

Q: With “NEK11, construct: Full length (from UniProt Q8NG66)” as the substance, how does the relative phosphorylation read?
A: 0.234

Q: “MKNK1, construct: Full length (D165-205) (from UniProt Q9BUB5)” was tested. Which relative phosphorylation did it give?
A: 0.603

Q: With “TP53RK, construct: Full length (from UniProt Q96S44)” as the substance, how does the relative phosphorylation read?
A: 1.09

Q: Which relative phosphorylation does the source give for “GRK2, construct: Full length (from UniProt P25098)” here?
A: 1.47

Q: Which relative phosphorylation does the source give for “NEK4, construct: Full length (from UniProt P51957)” here?
A: 0.153

Q: Which relative phosphorylation does the source give for “AURKB, construct: Full length (from UniProt Q96GD4)” here?
A: 0.611

Q: For “SGK3, construct: aa119-end (from UniProt Q96BR1)”, which relative phosphorylation is on record?
A: 0.369

Q: “GRK7, construct: Full length (from UniProt Q8WTQ7)” was tested. Which relative phosphorylation did it give?
A: 2.1

Same assay, conditions: E fixed; at +2

Q: “NEK11, construct: Full length (from UniProt Q8NG66)” was tested. Which relative phosphorylation did it give?
A: 0.349

Q: “MKNK1, construct: Full length (D165-205) (from UniProt Q9BUB5)” was tested. Which relative phosphorylation did it give?
A: 0.351

Q: With “TP53RK, construct: Full length (from UniProt Q96S44)” as the substance, how does the relative phosphorylation read?
A: 1.08

Q: Which relative phosphorylation does the source give for “GRK2, construct: Full length (from UniProt P25098)” here?
A: 0.883

Q: With “NEK4, construct: Full length (from UniProt P51957)” as the substance, how does the relative phosphorylation read?
A: 0.368

Q: “AURKB, construct: Full length (from UniProt Q96GD4)” was tested. Which relative phosphorylation did it give?
A: 0.427

Q: For “SGK3, construct: aa119-end (from UniProt Q96BR1)”, which relative phosphorylation is on record?
A: 0.236

Q: For “GRK7, construct: Full length (from UniProt Q8WTQ7)”, which relative phosphorylation is on record?
A: 0.894

Same assay, conditions: E fixed; at +3

Q: With “NEK11, construct: Full length (from UniProt Q8NG66)” as the substance, how does the relative phosphorylation read?
A: 0.53

Q: Which relative phosphorylation does the source give for “MKNK1, construct: Full length (D165-205) (from UniProt Q9BUB5)” here?
A: 0.429

Q: “TP53RK, construct: Full length (from UniProt Q96S44)” was tested. Which relative phosphorylation did it give?
A: 0.988

Q: With “GRK2, construct: Full length (from UniProt P25098)” as the substance, how does the relative phosphorylation read?
A: 1.37

Q: Which relative phosphorylation does the source give for “NEK4, construct: Full length (from UniProt P51957)” here?
A: 0.341

Q: How did the relative phosphorylation turn out when “AURKB, construct: Full length (from UniProt Q96GD4)” was run?
A: 0.498

Q: For “SGK3, construct: aa119-end (from UniProt Q96BR1)”, which relative phosphorylation is on record?
A: 1.05

Q: How did the relative phosphorylation turn out when “GRK7, construct: Full length (from UniProt Q8WTQ7)” was run?
A: 4.35

Same assay, conditions: E fixed; at +4

Q: How did the relative phosphorylation turn out when “NEK11, construct: Full length (from UniProt Q8NG66)” was run?
A: 0.606

Q: With “MKNK1, construct: Full length (D165-205) (from UniProt Q9BUB5)” as the substance, how does the relative phosphorylation read?
A: 0.903

Q: Which relative phosphorylation does the source give for “TP53RK, construct: Full length (from UniProt Q96S44)” here?
A: 1.16
